Assay [1] deals with naïve fusion of WT Fyn-SH3 and WT COMT (UniProt P06241).
For assay [2], the target named is SH3-588 (UniProt P06241).
The target in the next assay is naïve fusion 2 (UniProt P06241).
Assay [3] concerns the target SH3-588 (UniProt P06241). In words: fluorescence polarisation.
Assay [4] has as its target catechol O-methyltransferase (COMT), wild type (UniProt P22734).
The target of another assay is SH3-003 (UniProt P06241).

A word on the Kd: it is the concentration at which binding is half-saturated. A high value points to a looser complex.

Chain of catechol O-methyltransferase (COMT), wild type (P22734 44-264): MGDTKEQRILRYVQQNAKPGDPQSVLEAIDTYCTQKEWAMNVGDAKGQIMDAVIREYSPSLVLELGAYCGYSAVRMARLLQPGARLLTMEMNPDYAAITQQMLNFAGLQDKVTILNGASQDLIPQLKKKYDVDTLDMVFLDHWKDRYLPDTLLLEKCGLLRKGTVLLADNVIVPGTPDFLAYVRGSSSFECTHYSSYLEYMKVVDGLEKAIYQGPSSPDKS

B1: peptide 7 (peptide)
peptide: EWAPPLPPRNRPRRSYSK
HELM: PEPTIDE1{E.W.A.P.P.L.P.P.R.N.R.P.R.R.S.[O=C([C@H](Cc1ccc(O)c(O)c1)N[*:1])[*:2]].S.K.[am]}$$$$V2.0; N-terminus assumed
SMILES: CC(C)C[C@H](NC(=O)[C@@H]1CCCN1C(=O)[C@@H]1CCCN1C(=O)[C@H](C)NC(=O)[C@H](Cc1c[nH]c2ccccc12)NC(=O)[C@@H](N)CCC(=O)O)C(=O)N1CCC[C@H]1C(=O)N1CCC[C@H]1C(=O)N[C@@H](CCCNC(=N)N)C(=O)N[C@@H](CC(N)=O)C(=O)N[C@@H](CCCNC(=N)N)C(=O)N1CCC[C@H]1C(=O)N[C@@H](CCCNC(=N)N)C(=O)N[C@@H](CCCNC(=N)N)C(=O)N[C@@H](CO)C(=O)N[C@@H](Cc1ccc(O)c(O)c1)C(=O)N[C@@H](CO)C(=O)N[C@@H](CCCCN)C(N)=O
Take B1: the KM of methylation (steady-state kinetics, MTase-Glo) in assay [1] stood at 400 µM; in the assay with SH3-588 [2], 130 µM; with naïve fusion 2 it was 0.6 µM.

B2: peptide 5 (peptide)
peptide: APPAPPRNRPRRSGKNFLDY
HELM: PEPTIDE1{A.P.P.A.P.P.R.N.R.P.R.R.S.G.K.N.F.L.D.[O=C([C@H](Cc1ccc(O)c(O)c1)N[*:1])[*:2]].[am]}$$$$V2.0; N-terminus assumed
SMILES: CC(C)C[C@H](NC(=O)[C@H](Cc1ccccc1)NC(=O)[C@H](CC(N)=O)NC(=O)[C@H](CCCCN)NC(=O)CNC(=O)[C@H](CO)NC(=O)[C@H](CCCNC(=N)N)NC(=O)[C@H](CCCNC(=N)N)NC(=O)[C@@H]1CCCN1C(=O)[C@H](CCCNC(=N)N)NC(=O)[C@H](CC(N)=O)NC(=O)[C@H](CCCNC(=N)N)NC(=O)[C@@H]1CCCN1C(=O)[C@@H]1CCCN1C(=O)[C@H](C)NC(=O)[C@@H]1CCCN1C(=O)[C@@H]1CCCN1C(=O)[C@H](C)N)C(=O)N[C@@H](CC(=O)O)C(=O)N[C@@H](Cc1ccc(O)c(O)c1)C(N)=O
The molecule B2 displayed a Kd in the assay with SH3-588 [3] of 22 µM. In addition, in the assay with SH3-588 [2], the KM of methylation (steady-state kinetics, MTase-Glo) came out at 1.5 µM.

B3: peptide 4 (peptide)
peptide: APPLPPRNRPRRSGKNFLDY
HELM: PEPTIDE1{A.P.P.L.P.P.R.N.R.P.R.R.S.G.K.N.F.L.D.[O=C([C@H](Cc1ccc(O)c(O)c1)N[*:1])[*:2]].[am]}$$$$V2.0; N-terminus assumed
SMILES: CC(C)C[C@H](NC(=O)[C@H](Cc1ccccc1)NC(=O)[C@H](CC(N)=O)NC(=O)[C@H](CCCCN)NC(=O)CNC(=O)[C@H](CO)NC(=O)[C@H](CCCNC(=N)N)NC(=O)[C@H](CCCNC(=N)N)NC(=O)[C@@H]1CCCN1C(=O)[C@H](CCCNC(=N)N)NC(=O)[C@H](CC(N)=O)NC(=O)[C@H](CCCNC(=N)N)NC(=O)[C@@H]1CCCN1C(=O)[C@@H]1CCCN1C(=O)[C@H](CC(C)C)NC(=O)[C@@H]1CCCN1C(=O)[C@@H]1CCCN1C(=O)[C@H](C)N)C(=O)N[C@@H](CC(=O)O)C(=O)N[C@@H](Cc1ccc(O)c(O)c1)C(N)=O
With B3, the Kd with SH3-588 [3] worked out at 0.69 µM.

B4: peptide 2 (peptide)
peptide: EWAPPLPPRNRPRRSGGSKETYSK
HELM: PEPTIDE1{E.W.A.P.P.L.P.P.R.N.R.P.R.R.S.G.G.S.K.E.T.[O=C([C@H](Cc1ccc(O)c(O)c1)N[*:1])[*:2]].S.K.[am]}$$$$V2.0; N-terminus assumed
SMILES: CC(C)C[C@H](NC(=O)[C@@H]1CCCN1C(=O)[C@@H]1CCCN1C(=O)[C@H](C)NC(=O)[C@H](Cc1c[nH]c2ccccc12)NC(=O)[C@@H](N)CCC(=O)O)C(=O)N1CCC[C@H]1C(=O)N1CCC[C@H]1C(=O)N[C@@H](CCCNC(=N)N)C(=O)N[C@@H](CC(N)=O)C(=O)N[C@@H](CCCNC(=N)N)C(=O)N1CCC[C@H]1C(=O)N[C@@H](CCCNC(=N)N)C(=O)N[C@@H](CCCNC(=N)N)C(=O)N[C@@H](CO)C(=O)NCC(=O)NCC(=O)N[C@@H](CO)C(=O)N[C@@H](CCCCN)C(=O)N[C@@H](CCC(=O)O)C(=O)N[C@H](C(=O)N[C@@H](Cc1ccc(O)c(O)c1)C(=O)N[C@@H](CO)C(=O)N[C@@H](CCCCN)C(N)=O)[C@@H](C)O
As to B4, the KM of methylation (steady-state kinetics, MTase-Glo) in assay [4] is 132 µM.

B5: peptide 3 (peptide)
peptide: YDLFNKGSGGAPPLPPRNRPRRS
HELM: PEPTIDE1{[N[C@@H](Cc1ccc(O)c(O)c1)C(=O)[*:2]].D.L.F.N.K.G.S.G.G.A.P.P.L.P.P.R.N.R.P.R.R.S.[am]}$$$$V2.0; N-terminus assumed
SMILES: CC(C)C[C@H](NC(=O)[C@H](CC(=O)O)NC(=O)[C@@H](N)Cc1ccc(O)c(O)c1)C(=O)N[C@@H](Cc1ccccc1)C(=O)N[C@@H](CC(N)=O)C(=O)N[C@@H](CCCCN)C(=O)NCC(=O)N[C@@H](CO)C(=O)NCC(=O)NCC(=O)N[C@@H](C)C(=O)N1CCC[C@H]1C(=O)N1CCC[C@H]1C(=O)N[C@@H](CC(C)C)C(=O)N1CCC[C@H]1C(=O)N1CCC[C@H]1C(=O)N[C@@H](CCCNC(=N)N)C(=O)N[C@@H](CC(N)=O)C(=O)N[C@@H](CCCNC(=N)N)C(=O)N1CCC[C@H]1C(=O)N[C@@H](CCCNC(=N)N)C(=O)N[C@@H](CCCNC(=N)N)C(=O)N[C@@H](CO)C(N)=O
Regarding B5, the KM of methylation (steady-state kinetics, MTase-Glo) with SH3-588 [2] came to 6 µM.

B6: peptide 1 (peptide)
peptide: MKEARSAEAKEAGRGSGGSKNFLDY
HELM: PEPTIDE1{M.K.E.A.R.S.A.E.A.K.E.A.G.R.G.S.G.G.S.K.N.F.L.D.[O=C([C@H](Cc1ccc(O)c(O)c1)N[*:1])[*:2]].[am]}$$$$V2.0; N-terminus assumed
SMILES: CSCC[C@H](N)C(=O)N[C@@H](CCCCN)C(=O)N[C@@H](CCC(=O)O)C(=O)N[C@@H](C)C(=O)N[C@@H](CCCNC(=N)N)C(=O)N[C@@H](CO)C(=O)N[C@@H](C)C(=O)N[C@@H](CCC(=O)O)C(=O)N[C@@H](C)C(=O)N[C@@H](CCCCN)C(=O)N[C@@H](CCC(=O)O)C(=O)N[C@@H](C)C(=O)NCC(=O)N[C@@H](CCCNC(=N)N)C(=O)NCC(=O)N[C@@H](CO)C(=O)NCC(=O)NCC(=O)N[C@@H](CO)C(=O)N[C@@H](CCCCN)C(=O)N[C@@H](CC(N)=O)C(=O)N[C@@H](Cc1ccccc1)C(=O)N[C@@H](CC(C)C)C(=O)N[C@@H](CC(=O)O)C(=O)N[C@@H](Cc1ccc(O)c(O)c1)C(N)=O
On to B6, for which the KM of methylation (steady-state kinetics, MTase-Glo) is 42 µM in assay [4], 40 µM in assay [1], 30 µM in the assay with SH3-003 and 19 µM with SH3-588 [2].

The record behind these values is paper PMC10065947.
